In article PMC9853002, “Tumor treatment by pHLIP-targeted antigen delivery” (Frontiers in Bioengineering and Biotechnology, 2023):

Tests used:
[1] = pH-dependent interaction of HA-pHLIP agents with POPC liposomes (tryptophan fluorescence); assay type: physicochemical; conditions: 7 μM agent, 25°C; for cooperativity (n) of state II to state III transition / mid-point (pK) of state II to state III transition: pH-dependent insertion into POPC liposome bilayer, shift of fluorescence maximum vs pH, Henderson-Hasselbalch fit; for cooperativity (n) of state II to state III transition / mid-point (pK) of state II to state III transition / λmax in state III / λmax in state II: 1.4 mM POPC; for λmax in state I / λmax in state III / λmax in state II: position of tryptophan fluorescence maximum, excitation 295 nm; for λmax in state I: HA-pHLIP in solution at pH8; for λmax in state III: HA-pHLIP with POPC liposomes at pH3 (membrane-inserted); for λmax in state II: HA-pHLIP with POPC liposomes at pH8 (membrane-adsorbed)
[2] = system: murine mammary carcinoma 4T1 cells; assay: Treatment with HA-pHLIP agents in 4T1 tumor mouse model; assay type: in vivo; conditions: 4T1 flank tumors in BALB/c mice immunized with KLH-HA/CFA and KLH-HA/IFA; IP 40–60 µM 400 μl every second day from day 3 or 4; tumors weighed typically days 17–19; mean of control group = 100%
anti-HA antibodies = conditions: mouse, in vivo, ip
[3] = system: murine melanoma B16F10 cells; conditions: B16F10 flank tumors in BALB/c mice immunized with 2 injections of KLH-HA/AddaVax; IP 40 μM 400 μl on days 1, 2 and 3 from about 100 mm^3; tumors weighed day 7; mean of control group = 100%
[4] = system: murine melanoma B16F10 cells; assay: Treatment with Gal-pHLIP in B16F10 tumor model in A3galt2 knockout mice; assay type: in vivo, mouse; conditions: B16F10 tumors in A3galt2 knockout mice immunized with HSA-Gal/CFA and HSA-Gal/IFA; IP 80 μM 450 μl each day for 10 days; tumors weighed day 12; versus untreated control; statistically significant
Procedure: A3galt2 knockout female and male mice were immunized by IP injection of Galα1-3Galβ-4Glc-HSA (HSA-Gal) (Dextra Laboratories) (day 1) (HSA is human serum albumin), at a concentration of 0.2 mg/ml emulsified at a ratio 1:1 with CFA. On days 14 and 21 after the first immunization, mice were boosted by IP injection of 200 μl of HSA-Gal (0.2 mg/ml) emulsified at a ratio 1:1 with IFA.
A3galt2 knockout female and male mice immunized with HSA-Gal and CFA/IFA adjuvants received a single SQ injection of 10^6 murine melanoma B16F10 cells (ATCC CRL-6475) in the right flank on day 1. On day 2, mice were randomized into groups and tri-Gal-pHLIP was administered via IP injections each day (80 μM 450 μl per injection). […] All mice in the control and treated groups were euthanized on day 12, tumors were collected and weighed.
The Kolmogorov-Smirnov two-tailed non-parametric test was used to compare two samples at a significance level of 0.05.

| Substance | cooperativity (n) of state II to state III transition [1] | mid-point (pK) of state II to state III transition [1] | λmax in state I [1] [nm] | λmax in state III [1] [nm] | λmax in state II [1] [nm] | Norm. tumor weight [2] [%] | amount of anti-HA antibody in serum after treatment (anti-HA antibodies) | Norm. tumor weight [3] [%] | reduction of tumor growth [4] [%] |
| --- | --- | --- | --- | --- | --- | --- | --- | --- | --- |
| AK[3xHA-Peg12]QNDDQNK[3xHA-Peg12]PWRAYLDLLFPTDTLLLDLLWA [2(3xHA-Peg12)-pHLIP3] | 1.9 | 4.8 | 351 | 337 | 351 | 61.6 | – | – | – |
| (Az)GGK[HA-Peg24]GGGK[HA-Peg24]PWRAYLELLFPTETLLLELLLA [2(HA-Peg24)-pHLIP4] | 0.7 | 5.8 | 347 | 336 | 347 | – | – | – | – |
| AK[HA-Peg24]QNDDQNK[HA-Peg24]PWRAYLDLLFPTDTLLLDLLWA [2(HA-Peg24)-pHLIP3] | 0.9 | 4.6 | 351 | 337 | 350 | 62.9 | – | – | – |
| (Az)GGK[HA-Peg12]GGGK[HA-Peg12]PWRAYLELLFPTETLLLELLLA [2(HA-Peg12)-pHLIP4] | 1.3 | 5.8 | 347 | 337 | 344 | 55.3 | – | – | – |
| K(N3)[HA-Peg12]GGGGGK(N3)[HA-Peg12]PWRAYLELLFPTETLLLELLLA [2(HA-Peg12)-pHLIP5] | 0.9 | 6.2 | 347 | 340 | 346 | – | dropped significantly (close to background level) | 56.5 | – |
| AK[HA-Peg12]QNDDQNK[HA-Peg12]PWRAYLDLLFPTDTLLLDLLWA [2(HA-Peg12)-pHLIP3] | 1.9 | 4.8 | 351 | 337 | 351 | 61.3 | – | – | – |
| (Az)GGK[HA-Peg12]GGGKPWRAYLELLFPTETLLLELLLA [HA-Peg12-pHLIP4, v1, single HA-Peg12 on first Lys of pHLIP4] | 1.7 | 6.4 | 347 | 337 | 343 | – | – | – | – |
| Galα(1,3)Galβ(1,4)Glc-Peg4-NHC(O)-AADDQNPWRAYLDLLFPTDTLLLDLLWA-OH [Gal-pHLIP] | – | – | – | – | – | – | – | – | 66 |
| (Az)GGKGGGK[HA-Peg12]PWRAYLELLFPTETLLLELLLA [HA-Peg12-pHLIP4, v2, single HA-Peg12 on second Lys of pHLIP4] | 2.2 | 6.8 | 348 | 337 | 343 | – | – | – | – |
